The text below walks through data of the DeepSol protein solubility set.

The nature of this series: soluble on expression in E. coli; label from the status in PepcDB or PDB records.
In the case of “MLRAAGNLSKSMMKSQRRFLNLQEFQSKEILEKHGCSVQNFVVASNRKEAEEKWMSFGDHEYVVKAQILAGGRGKGKFINGTKGIGGVFITKEKDAALEAIDEMIGKRLVTKQTTSEGVRVDKVMIAEGVDIKRETYLAVLMDRESNGPVVVASPDGGMDIEAVAEKTPERIFKTPIDIQMGMTEGQSLKIAKDLQFEGKLIGVAAQEIKRLYDLFIAVDATQVEINPLVETADGRVFCVDAKMNFDDSAAYRQKEIFAYETFEEHDPREVDAHQFNLNYIGMDGNIACLVNGAGLAMATMDLIKLHGGEPANFLDVGGAVTEDAVFNAVRIITSDPRVKCVLINIFGGIVNCATIANGVVSAVNKIGLNVPMVVRLEGTNVDAAKQIMKKSGLKILTANNLDEAAAKAVSSLPK”, the “soluble on expression in E. coli” value is given as “not soluble”. Under “MGKEQFREADKALKVVGVKFAPGDCEFMRQTAHVPIFNNKLYEDVEGKLQPANYGPLDPKMGVSTKTGTCSTCGLGLTDCVGHFGYFDLDVPVFHIGFFKLTIQLLQCICKNCSSILLTPEQHRVFSRQVMNPNLDYLHRKALHKRIVAACKKGSTCSHCGLKNGTVKKAVGAVLKIAFASPVSVDELGKFATMFSSNQEVGDHVRKMKFTLLNPLFVQKLFSNIKEGDIPVLMVRSGEEKHPNDLLLTRMPVPPVCIRPSVVSEVKAGTTEDDVTMKLMEIMLTNDVLKKHKRDGAPSKTLFETWEHLQIQCALYINSEMSGLPPDMQPKRAMRAFTQRLKGKQGRFRGNLCGKRVDFSGRTVISPDPNLRIDQVGVPIHVAMTLTFPEIVNASNIEKMRQLVINGSDVHPGANYLVEKKTGNKKLLKYGKRDELAKNLRMGDTIERHLDDNDVVLFNRQPSLHKISIMSHRAKVMPGRTFRFNECACTPYNADFDGDEMNLHLPQTYEAKAEASELMNVKNNLITPRSGEPLVAAIQDFITGGYLLTHKDTFLPRAEVYRFAAALIDASAKKQTKIRIPPPAIRRPVELWTGKQLIELIIRPDKGSDVSLNLTAKNKSYTGNLELCSKDSYVIIRNSVLLAGCLDKSLLGSSSKVNIFYMLMRDYGEDAAVDAMWRLARMAPVFLSNRGFSIGIGDVRPSEQLLREKGQLVDNGYSKCSQYIKELEEGKLKAQPGCTEEETLESIILRELSTIRDHAGQVCLRNLSKYNAPLTMAVCGSKGSFINISQMIACVGQQAISGHRPPDGFEERSLPHFERKKKTPEAKGFVANSFYSGLTPTEFFFHTMGGREGLVDTAVKTAETGYMQRRLVKCLEDLCASYDGTVRSSVGDVIEFVFGEDGLDPAMMEAKDGSVVDFTHVLEHAKNIQTTKEQPIPVDKLDEVLKAEIQKKFKGKYVHFADKLSEYITQTEIKKSKKWQNGKAHCGNHETADLKTKESCKICKNLEAYKTSLLANSCLTKTQLCSFIELCYYKVARAITEPGTAVGAIAATSIGEPSTQMTLKTFHFAGVASMNITQGVPRIKEIINAVKTISTPIITAALLDPYDESLARRVKARIEKTTLGEICDYIEEVYLPDDYFLLVKLNSKRIRLLQLEVCMESISYAIATSKVCPQMRGCKIVAHGKTMMAIRPPSTSKLSKTMTMQILKYSLANVVVKGIPSVNRCVIHADEKKGDFYSLLVEGTDFRSVLSSVGVDPRKTNFNNALVVADVLGIEAARSCIINEIIATMDAHGIGLDRRHVMLLADVMTYRGEVLGITRNGLVKMKDSVLLLASFEKTMDHLFEAAFFSQRDVIHGVSECIIMGTPMTVGTGTFKLMQKYDKKAVLKQNSPIFERLNVTL” stands “not soluble”; under “MAHPLDLNQLAQHIKQWGQSLGFQQVGICDTDLTAEEPRLQAWLDKQYHGEMAWMARHGMLRARPHELLPGTLRVISVRMNYLPAKAAFASTLNNPELGYVSRYALGRDYHKLLRQRLKKLGDQIQHYCLEQNNLDRHDLELHDLEQHDSERQGQPEQHTASEINFRPFVDSAPIMERSLAAKAGIGWVGKHSLILNRDAGSWFFLGELLIDLPLPVDKPQEEQCGRCVACMTTCPTGAIVAPYTVDARRCISYLTIELEGAIPEEFRPLMGNRIYGCDDCQLICPWNRFSQLTDEDDFSPRAVLHTPQLLDLFAWNEEKFLRVTEGSAIRRIGHLRWLRNISVALGNAPYLDSIVLALETRRGLHPMLDEHIEWAISQQLARRATQAVEVQLPQKKRLIRAIEKGLPRDA”, “not soluble”. Under “MGSDKIHHHHHHMFQYRFKWSFSSDPNLSDRLFELIEVIFPGLNDLVERGRKLGASWESASTPFIRFHDDVAITHVGVLEIPMVIMGQRVTVGGIHGVATRPEFRRKGYYREVIEEVLEYCDQIYETLILTTPEPEYHLPFGFRVVEEYIFHLKCSSKGNVNGWRILDFSDNQDLALLHRLLETRAPVSHVVGVVNEKPVFFVNEGSRDLYYAEDLDLIACIKIENNRLHIFDLVATKICSLKEILGRTSEVIEEVKIYFSPDLLDVDNVQAFPYKLEDTVLMIRGQFAAVGEKFMLPRSARC” stands “not soluble”; under “MSTFRLITGGIGTGKTLWTVEQLFKLKNLTPDRLVYTDITGIKHTGVTVVPPDFDWRNVEDNSLIIFDEVQYKELFSRHNSKRDKQILDLTTMRKRGIEIWCITQRARFLNQDVLGLVNEHIHLEKTGDKTARVYIWHEAETNITKTKKMFPFEKYVWQHPTDLYGFYESIKPDA”, “not soluble”; under “MSLTGRAFAIPLRTRFRGITVREGMLVRGAAGWGEFSPFAEYGPRECARWWAACYEAAELGWPAPVRDTVPVNATVPAVGPEEAARIVASSGCTTAKVKVAERGQSEANDVARVEAVRDALGPRGRVRIDVNGAWDVDTAVRMIRLLDRFELEYVEQPCATVDELAEVRRRVSVPIAADESIRRAEDPLRVRDAEAADVVVLKVQPLGGVRAALRLAEECGLPVVVSSAVETSVGLAAGVALAAALPELPYACGLATLRLLHADVCDDPLLPVHGVLPVRRVDVSEQRLAEVEIDPAAWQARLAAARAAWEQVEREPGPEGHHHHHH”, “soluble”. Under “SNAMGEAATKSDRQQNQTRLWLNILRLHGLVFGDLNRQLLDETGLSLAKFDAMAQLARNPDGLSMGKLSGALKVTNGNVSGLVNRLIKDGMVVKAMSADDRRSFSAKLTDAGLTTFKQASEAHNRILAELLRAVSDQDMVEASAALRGILESMQTGASLD” stands “soluble”; under “MANPRGFCAGVDRAISIVENALAIYGAPIYVRHEVVHNRYVVDSLRERGAIFIEQISEVPDGAILIFSAHGVSQAVRNEAKSRDLTVFDATCPLVTKVHMEVARASRRGEESILIGHAGHPEVEGTMGQYSNPEGGMYLVESPDDVWKLTVKNEEKLSFMTQTTLSVDDTSDVIDALRKRFPKIVGPRKDDICYATTNRQEAVRALAEQAEVVLVVGSKNSSNSNRLAELAQRMGKHAFLIDDAKDIQEEWVKEVKCVGVTAGASAPDILVQNVVARLQQLGGGEAIPLEGREENIVFEVPKELRVDIREVD”, “not soluble”. As to “MSLQRYFIELTKQQIEEAPTFSITGEEVHHIVNVMRMNEGDQIICCSQDGFEAKCELQSVSKDKVSCLVIEWTNENRELPIKVYIASGLPKGDKLEWIIQKGTELGAHAFIPFQAARSVVKLDDKKAKKKRERWTKIAKEAAEQSYRNEVPRVMDVHSFQQLLQRMQDFDKCVVAYEESSKQGEISAFSAIVSSLPKGSSLLIVFGPEGGLTEAEVERLTEQDGVTCGLGPRILRTETAPLYALSAISYQTELLRGDQEGGSHHHHHH”, the “soluble on expression in E. coli” value is “soluble”. For the sequence “MAHHHHHHMADSYENDEDVLQMIQQIKKITKESKRKFENEIDYLVEDTKTNLLTHVDDEKNCIKKEAEEKLNSYRENLIKYEKGINEKRRHYLKLKAELATVVNNYKKRMKVGPACTCVERFTCACGEVYTRVEVYTLVKLHTLVKPPTRLLSPQDFNQETENFKQTYEREKKELEDLEDREWSELNTHCVELLSKTKSNICATKNETNKKLRKVLNSIM”, the “soluble on expression in E. coli” value is listed as “not soluble”. Under “MPKRRLQTTLSEEAFRIIEKFKPDYGGINEVIEAALKLLNREDRNLSEDDILLIRLIRDLDFTGCGRSQYMHLICGDIEKAVKESMMETAVEWFLKKPFAEIELEEFLETVKRGWKVLNRVDYVEITKGDGWIQIFCEHTMRRREVSEFLAMHILNIYEKYYKGEWDVVKSISTNGFTLKFYRRV” stands “not soluble”; under “MAAELVQLNPGQQVERWSIEKKLGEGGFGAVYRVFDATGKYAMKVEGANEQIQVLKLEVSVLNKLSKRGNRHFCKIEDKGRFGNFNYVVMTLVGKSLQDLNKAGVGGHMSMGCSIGIGIQSLEALEDLHNIGYLHRDVKPGNYTIGRPELNEIRKVYILDFGMCRKFTGNDGTIRKPRQAAGFRGTVKYAPISCHLQRELCRKDDLETWMYMQVELSHGTIPWQYISDMNQVGQAKQAIRNNLGSLFPPPCPHQFQDIMRMVDAMKYYDAPNYQAIYGMMRQAYGACGSNENAPYDWENGGPAAYLLH”, “not soluble”; under “MSLEKSYWEQAHLQLPLKYTWKISRNASTEKINVIVFLCIDGRTYPGEAAPNVRYGESVELIDLQFKHFQTVWKDSLLQDEHAYNDVLDGLKLCQSLRFALESAYVHARCDKDPAFFERYTGIKMHTSPLATSYTLPIMDPGQIQEFIQTHDLTRFDTLKIKTGKEESKELIKTASRYFDKMIRVDANEAWTDPDLLIKELEELKRIPLEFIEQPFESAQKDAYKYFKKYSKIPVIADESITFAPDLKEIKELFHGVNMKLMKAGGYREGANILLKSKELGLKTMVGCMVETTLGIRSGMWISGHSDYIDLDGSFVIDNEPFKLVSENLGRLVIKQVNFFIEKWQKEGHHHHHH”, “soluble”. As for “MSLSVSFIFLLVASIGAVVADSENVLVLTESNFEETINGNEFVLVKFYAPWCVHCKSLAPKYDEAADLLKEEGSDIKLAKVDATENQALASKFEVRGYPTILYFKSGKPTKYTGGRATAQIVDWVKKKSGPTVTTVESVEQLEELKGKTRVVVLGYFKDAKSDAATIYNEVADSVDDAFFAVAGSAEVAAAASLNEDGVALIRTDGDDSETSTIAEAEITNTIALKQWLHAYKLSAVTEFTHESAQEIVGGDLKKFHFLIIRKSDSSFDETIAKFTEVAKKFRAKIVFVLLDVDVEENARILEFLGVDAKNTPANRIVSLADQVEKFKPQEGEDFEAFTNSYLEGKSAQDLKAQDLPEDWNALPVKVLVASNFNEIALDETKTVFVKFYAPWCGHCKQLVPVWDELAEKYESNPNVVIAKLDATLNELADVKVNSFPTLKLWPAGSSTPVDYDGDRNLEKFEEFVNKYAGSASESETASQDHEEL”, the entry is “not soluble”; as for “MLKGKVALVTGASRGIGRAIAKRLANDGALVAIHYGNRKEEAEETVYEIQSNGGSAFSIGANLESLHGVEALYSSLDNELQNRTGSTKFDILINNAGIGPGAFIEETTEQFFDRMVSVNAKAPFFIIQQALSRLRDNSRIINISSAATRISLPDFIAYSMTKGAINTMTFTLAKQLGARGITVNAILPGFVKTDMNAELLSDPMMKQYATTISAFNRLGEVEDIADTAAFLASPDSRWVTGQLIDVSGGSCL”, “not soluble”. As for “MGSDKIHHHHHHMGRRLRVEYLGAMYHVVQRGNNREFIFGRPDERDYLIEQVGNAVKVDGVTVFAYVVMSNHYHLLLRTDGEFLSKVMHRVNTRYSRFFNCDSGRDRTGVVFEGRYKAILVQNDDYLLSLVRYIHRNPLRAGIVSRFCDYRWSSDACYRQQGNGPGGGDFVNCDLILRMFSDKKQIALREYKRFMENDDGKDWENIPCIGDDSFAQLAEPRKEKAGRVSLDEILINTGVDNEEFQLIKQGSRKRLLQKYKIAFTGEAIGQGYTMREIGQHIKLSHVAISHLFNSKQDSK”, the entry is “not soluble”; as for “MEDCRGDGSRREIERRRKYGRELQDLREGGEEFEYYFFVSNVFRTKLQKMPGADYSAVKGGGLKLKAGKKNLFKVGKEKKKKNKDDKEKIDPDTVENGGWRKIADEFDMKGGTNVAIEVASGAGSTRTYVAAMDNGKFTIGFPHPEGEGPNPEEIFALVKTPDDSKISLKTGFGRYVGVDSEYQLVAMAEAIGSREQFVLVFQEGKTAFQAVSSPLFLSTVPNKEGHIYVASRTATENEMVNIRTDAIQEGPVDWRSVEDRKNARECETAYVKMYQHSKVDLKNRHIAIDVKDKKGVKKAQADGSAHELLLDRRMKMKSDRYC”, “not soluble”.
